This is an account of results in patent US7842460.

In series [1] the target is ISG15-PLA2mX fusion (mouse) (UniProt Q9QXX3). Description: cell-based or functional assay.
For another series, the target named is T1, Ubiquitin-PLA2mX fusion (UniProt Q9QXX3).
T1 sequence: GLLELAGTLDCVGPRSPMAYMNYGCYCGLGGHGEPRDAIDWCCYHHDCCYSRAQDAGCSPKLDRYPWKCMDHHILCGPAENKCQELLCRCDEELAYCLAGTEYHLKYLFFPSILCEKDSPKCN

In the case of “UBP43, the ISG15-specific isopeptidase (enzyme)”, in series [1], the rate of PLA2 activity (fluorescent lipid substrate), extracts of UBP43-transfected against non-transfected HEK293T cells turned out to be 4 fold. With “core domain of USP2 (shared core enzymatic domain of the spliced USP2 product, either USP2a or USP2b)”, in the series with Ubiquitin-PLA2mX fusion, the Ratio of PLA2 activity, fusion with isopeptidase over fusion without is 9.37 and the “cleavage of the fusion by SDS-PAGE (10 ug fusion, 3 ug core domain of USP2)” value is on record as “complete cleavage of the fused Ub-PLA2mX was seen”.
